Laboratory results: patent US20100286365A1 (AMYLIN PHARMACEUTICALS, published 2010)
Where no end group is shown, it is not given here. Side-chain parts run from the residue outwards. [ ]: non-standard residue; d: D form. lisinopril monoester = lisinopril with its ethyl ester not hydrolysed, amide-linked to γ-Abu; linker type G21 = not defined here; linker type C9 = not defined here; pGlu = O=C1CC[C@@H](C(=O)O)N1; AEEA = NCCOCCOCC(=O)O; GABA = NCCCC(=O)O

T1: GLP-1 receptor endogenously expressed by RIN m5f cells (UniProt P32301 22-463, limits assumed)
T1 sequence (looked up): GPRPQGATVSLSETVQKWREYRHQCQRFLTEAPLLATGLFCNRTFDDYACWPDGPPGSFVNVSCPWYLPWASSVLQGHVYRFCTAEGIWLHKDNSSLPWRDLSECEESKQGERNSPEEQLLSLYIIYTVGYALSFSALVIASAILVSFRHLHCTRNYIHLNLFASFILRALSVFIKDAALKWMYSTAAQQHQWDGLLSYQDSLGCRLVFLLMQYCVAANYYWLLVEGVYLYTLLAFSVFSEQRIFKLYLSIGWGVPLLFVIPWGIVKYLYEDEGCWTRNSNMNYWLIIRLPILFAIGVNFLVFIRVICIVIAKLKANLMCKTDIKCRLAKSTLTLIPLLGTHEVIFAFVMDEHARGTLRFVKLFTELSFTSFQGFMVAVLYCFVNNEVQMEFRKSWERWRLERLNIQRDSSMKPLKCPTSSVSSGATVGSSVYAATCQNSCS

T2: ACE from rabbit lung (rabbit, UniProt P12822 34-1310, limits assumed)
T2 sequence (looked up): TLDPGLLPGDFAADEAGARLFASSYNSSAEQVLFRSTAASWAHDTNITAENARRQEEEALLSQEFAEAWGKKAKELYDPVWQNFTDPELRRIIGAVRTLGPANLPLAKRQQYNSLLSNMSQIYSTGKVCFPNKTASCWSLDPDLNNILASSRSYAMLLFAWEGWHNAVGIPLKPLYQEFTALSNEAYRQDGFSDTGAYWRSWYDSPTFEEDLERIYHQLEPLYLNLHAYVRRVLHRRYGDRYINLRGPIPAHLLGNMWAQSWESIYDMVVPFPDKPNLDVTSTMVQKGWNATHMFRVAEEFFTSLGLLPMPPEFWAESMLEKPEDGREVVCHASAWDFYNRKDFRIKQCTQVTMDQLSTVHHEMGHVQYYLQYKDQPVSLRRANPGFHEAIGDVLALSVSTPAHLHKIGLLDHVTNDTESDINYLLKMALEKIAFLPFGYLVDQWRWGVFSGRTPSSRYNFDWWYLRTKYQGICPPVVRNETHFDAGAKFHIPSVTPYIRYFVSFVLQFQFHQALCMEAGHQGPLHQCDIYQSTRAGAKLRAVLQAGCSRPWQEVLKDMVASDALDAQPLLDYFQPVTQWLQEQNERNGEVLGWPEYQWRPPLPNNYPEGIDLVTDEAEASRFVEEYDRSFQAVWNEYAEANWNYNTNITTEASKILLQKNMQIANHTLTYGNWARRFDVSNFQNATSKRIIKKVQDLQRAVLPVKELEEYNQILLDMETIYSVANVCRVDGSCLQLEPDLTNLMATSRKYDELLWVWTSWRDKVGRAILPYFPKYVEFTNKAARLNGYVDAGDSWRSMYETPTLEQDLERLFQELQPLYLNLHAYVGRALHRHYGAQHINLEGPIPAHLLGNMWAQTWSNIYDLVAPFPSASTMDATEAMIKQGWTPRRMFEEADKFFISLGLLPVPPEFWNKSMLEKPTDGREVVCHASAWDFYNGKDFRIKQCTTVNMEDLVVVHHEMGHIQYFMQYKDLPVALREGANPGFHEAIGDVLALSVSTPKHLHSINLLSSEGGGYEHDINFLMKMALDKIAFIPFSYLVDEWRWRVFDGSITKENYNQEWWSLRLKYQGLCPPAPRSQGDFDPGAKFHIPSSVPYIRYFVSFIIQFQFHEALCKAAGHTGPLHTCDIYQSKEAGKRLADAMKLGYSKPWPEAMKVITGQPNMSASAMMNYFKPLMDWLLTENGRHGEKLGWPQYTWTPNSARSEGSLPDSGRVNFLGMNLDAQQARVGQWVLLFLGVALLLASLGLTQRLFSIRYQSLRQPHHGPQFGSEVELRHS

T3: GLP-1 receptor endogenously expressed by the thyroid c-cell carcinoma line 6-23 (UniProt P32301 22-463)
T3 sequence (looked up): T1 sequence (looked up)

T4: human GIP receptor (human, UniProt P48546 22-466)
T4 construct: whole, on cells; Membrane fractions of HEK-GIPR cells were used; also called HEK-GIPR
T4 sequence (looked up): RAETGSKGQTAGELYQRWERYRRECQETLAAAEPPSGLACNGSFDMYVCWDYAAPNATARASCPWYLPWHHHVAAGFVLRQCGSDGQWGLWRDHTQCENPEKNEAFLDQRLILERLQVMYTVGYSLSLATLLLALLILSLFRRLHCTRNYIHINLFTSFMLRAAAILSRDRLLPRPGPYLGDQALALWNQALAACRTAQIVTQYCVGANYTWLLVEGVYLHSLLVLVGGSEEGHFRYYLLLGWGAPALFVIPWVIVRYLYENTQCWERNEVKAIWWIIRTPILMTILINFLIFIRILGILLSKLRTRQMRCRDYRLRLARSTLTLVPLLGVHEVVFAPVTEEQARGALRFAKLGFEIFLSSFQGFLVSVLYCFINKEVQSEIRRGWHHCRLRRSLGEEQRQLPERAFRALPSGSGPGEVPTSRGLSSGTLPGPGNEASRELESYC

B1: Diprotin A (Ile-Pro-Ile) (peptide)
peptide: IPI
B2: GLP-1(7-37)-GG-(S)-2,6-diamino-1-(thiazolidin-3-yl)hexan-1-one amide (peptide)
peptide: HAEGTFTSDVSSYLEGQAAKEFIAWLVKGRGGG
modifications: C-terminal Gly amide-linked to (S)-2,6-diamino-1-(thiazolidin-3-yl)hexan-1-one (Lys-thiazolidide, DPP-IV inhibitor motif)
notes: also called Cmpd 4844; 4844
B3: GLP-1(7-37)-GG-(S)-2,6-diamino-1-(thiazolidin-2-cyano-3-yl)hexan-1-one amide (peptide)
peptide: B2 peptide
modifications: C-terminal Gly amide-linked to (S)-2,6-diamino-1-(thiazolidin-2-cyano-3-yl)hexan-1-one (Lys-2-cyanothiazolidide, DPP-IV inhibitor motif)
notes: also called Cmpd 4845; 4845
B4: GLP-1 (peptide)
peptide: HAEGTFTSDVSSYLEGQAAKEFIAWLVKGR-NH2
B5: GLP-1(7-37)-γ-Abu-N^ε2Lys-(Pyr)-WAP-OH (peptide)
peptide 1: HAEGTFTSDVSSYLEGQAAKEFIAWLVKGRG
peptide 2: [pGlu]KWAP-OH
modifications: not fully specified (C-terminus); also: linker at chain B 2 to a chain's C-terminus via γ-Abu
B6: GLP-1(7-37)-γ-Abu-CONH-lisinopril monoester (peptide)
peptide: HAEGTFTSDVSSYLEGQAAKEFIAWLVKGRG-{GABA-lisinopril monoester}
B7: GLP-1(7-37)-γ-Abu-β-Ala-CONH-lisinopril diacid (peptide)
peptide: HAEGTFTSDVSSYLEGQAAKEFIAWLVKGRG
modifications: C-terminus extended by γ-Abu-β-Ala and amide-linked (CONH) to lisinopril diacid
B8: Compound 5713 (peptide)
peptide: HAEGTFTSDVTQQLDEKAAKEFIDWLINGGPSKEIIS-{linker type G21-lisinopril}
modifications: reading uncertain
B9: Compound 5714 (peptide)
peptide: HAEGTFTSDVTQQLDEKAAKEFIDWLINGGPSKEIIS-{linker type C9-lisinopril}
modifications: reading uncertain
B10: Compound 4202 (peptide)
peptide: HAEGTFTSDVTQQLDEKAAKEFIDWLINGGPSKEIIS
B11: Compound 5607 (peptide)
peptide: B7 peptide
modifications: lisinopril joined at the C-terminus through linker type G21 (FIG. 2)
B12: Compound 5547 (peptide)
peptide: B7 peptide
modifications: lisinopril joined at the C-terminus through linker type C9 (FIG. 2)
B13: Lys^30 N-ε-(Ado-(γ-L-Glu-2-(S)-cyano pyrrolidyl)) GIP(1-30) (peptide)
peptide: YAEGTFISDYSIAMDKIHQQDFVNWLLAQK([AEEA-γ‑L‑Glu‑2‑(S)‑cyano pyrrolidyl])
B14: [^14Leu] GIP(1-30)-Ado-Lys-N-ε-(2-(S)-cyano pyrrolidyl) (peptide)
peptide: YAEGTFISDYSIALDKIHQQDFVNWLLAQK-{AEEA-Lys‑N‑ε‑(2-(S)-cyano pyrrolidyl)}
B15: GIP(1-30)-Ado-Ado-Lys-N-ε-(2-(S)-cyano pyrrolidyl) (peptide)
peptide: YAEGTFISDYSIAMDKIHQQDFVNWLLAQK
modifications: C-terminus extended by Ado-Ado-Lys-N-ε-(2-(S)-cyano pyrrolidyl)
B16: [^2D-Ala^14Leu] GIP(1-30)-βAla-βAla-ε-NH-Lys(α-NH-Pyroglutamoyl)-Trp-Ala-Pro (peptide)
peptide 1: Y[dA]EGTFISDYSIALDKIHQQDFVNWLLAQK
peptide 2: [pGlu]KWAP-OH
modifications: not fully specified (C-terminus); printed as [^2D-Ala^14Leu] GIP(1-30)-βAla-βAla-ε-NH-Lys(α-NH-Pyroglutamoyl)-Trp-Ala-Pro; also: linker at chain B 2 to a chain's C-terminus via βAla-βAla
notes: also called [^2D-Ala,^14Leu]; GIP-(1-30)-β-Ala-β-Ala-Lys(α-NH-Pyroglutamoyl)-Trp-Ala-Pro-COOH
B17: [^2D-Ala] GIP(1-30)-Ado-Ado-Aun-βAla-βAla-ε-NH-Lys(α-NH-Pyroglutamoyl)-Trp-Ala-Pro (peptide)
peptide 1: Y[dA]EGTFISDYSIAMDKIHQQDFVNWLLAQK
peptide 2: [pGlu]KWAP
modifications: not fully specified (C-terminus); printed as [^2D-Ala] GIP(1-30)-Ado-Ado-Aun-βAla-βAla-ε-NH-Lys(α-NH-Pyroglutamoyl)-Trp-Ala-Pro; also: linker at chain B 2 to a chain's C-terminus via Ado-Ado-Aun-βAla-βAla
B18: N-(γ-L-Glu-2-(S)-cyano pyrrolidyl)-Ado-Ado) GIP(1-30) (peptide)
peptide: B15 peptide
modifications: not fully specified (N-terminus)
B19: GIP(1-30)-Ado-Lys-N-ε-(2-(S)-cyano pyrrolidyl) (peptide)
peptide: B15 peptide
modifications: C-terminus extended by Ado-Lys-N-ε-(2-(S)-cyano pyrrolidyl)

What follows are binders tested against Recombinant DPP-IV (assay: cell-based or functional assay).
In the case of B1, the “DPP-IV inhibition IC50” value is reported as 5.1 µM.

What follows are binders tested against T1, GLP-1 receptor endogenously expressed … (assay: cell-based or functional assay).
With B2 the “GLP Cyclase EC50” value was 0.13 nM.
With B3 the “GLP Cyclase EC50” value was 0.4 nM.

Biological target: Recombinant DPP-IV
Assay: cell-based or functional assay
Remark: another data set of the same source
B2 was tested, and the “DPP-IV IC50” value was 91 nM.
With B3 the “DPP-IV IC50” value was 76 nM.
In the case of B4, the “DPP-IV IC50” value is reported as over 3300 nM.

What follows are binders tested against T2, ACE from rabbit lung (assay: cell-based or functional assay).
In the case of B5, the “ACE inhibition IC50” value is reported as over 10 µM.
With B6 the “ACE inhibition IC50” value was over 100 µM.
B7 was tested, and the “ACE inhibition IC50” value was 0.18 µM.

Each binder was assayed against T3, GLP-1 receptor endogenously expressed … (assay: cell-based or functional assay).
For B8, the “GLP Cyclase EC50” value was 2.89 nM.
B9 was tested, and the “GLP Cyclase EC50” value was 2.93 nM.
B10 was tested, and the “GLP Cyclase EC50” value was 0.03 nM.

Biological target: T2, ACE from rabbit lung
Assay: cell-based or functional assay
Remark: another data set of the same source
In the case of B8, the “ACE inhibition IC50” value is reported as 700 nM.
B9 was tested, and the “ACE inhibition IC50” value was 350 nM.
With B11 the “ACE inhibition IC50” value was 100 nM.
For B12, the “ACE inhibition IC50” value was 180 nM.

Each binder was assayed against T4, human GIP receptor (assay: displacement of 30 pM 125I-GIP from HEK-GIPR membranes by 10 nM conjugate, relative to human GIP (100%)).
Protocol: Membrane fractions were prepared from confluent cell cultures of HEK-GIPR, snap frozen, and stored at −80° C. until use. […] Reactions were allowed to proceed to equilibrium for 90 minutes at room temperature with constant shaking. The reaction mixtures were then filtered through 96-well glass fiber filter plates separating bound and unbound fractions of radioligand.
With B13 the “GIP RBA % inhibition at 10 nM” value was 33%.
For B14, the “GIP RBA % inhibition at 10 nM” value was 100%.
In the case of B15, the “GIP RBA % inhibition at 10 nM” value is reported as 97%.
For B16, the “GIP RBA % inhibition at 10 nM” value was 66%.
For B17, the “GIP RBA % inhibition at 10 nM” value was 70%.
For B18, the “GIP RBA % inhibition at 10 nM” value was 32%.
For B19, the “GIP RBA % inhibition at 10 nM” value was 99%.

The binders below were run against T1, GLP-1 receptor endogenously expressed … (assay: displacement of [125I]GLP-1 tracer from RIN m5f cell membranes (endogenous GLP-1 receptor), filter binding).
Protocol: Membrane fractions were prepared from confluent cultures of RIN m5f cells. […] The reaction mixtures were constantly mixed at 23° C. for 2 hours. The reaction mixtures were filtered through glass filter pads presoaked with 0.3% PEI solution and rinsed with ice-cold phosphate buffered saline. Counts bound to the filer pads were determined using a scintillation counter and binding affinities were calculated using GraphPad PRISM® software (GraphPad Software, Inc., San Diego, Calif.).
B2 was tested, and the IC50 was 0.087 nM.
For B3, the IC50 was 0.1 nM.
